Experimental data reported in article PMC3034952 (Enzyme Research, 2011).
Numbering of substitutions follows the chain as printed.

How the values were obtained:
[1] = target: T1, AtPDC E1α D295L mutant, H6-tagged (Arabidopsis thaliana, UniProt P52901 18-389, D295L); test: SEC; purified recombinant AtPDC E1 on a Superose 12 column in 50 mM TES-NaOH, pH 7.4, 50 mM NaCl, 0.1 mM TPP, 0.2 mM MgCl2; fractions analysed by SDS-PAGE and immunoblotting; settings: both partners purified
T1 sequence (looked up): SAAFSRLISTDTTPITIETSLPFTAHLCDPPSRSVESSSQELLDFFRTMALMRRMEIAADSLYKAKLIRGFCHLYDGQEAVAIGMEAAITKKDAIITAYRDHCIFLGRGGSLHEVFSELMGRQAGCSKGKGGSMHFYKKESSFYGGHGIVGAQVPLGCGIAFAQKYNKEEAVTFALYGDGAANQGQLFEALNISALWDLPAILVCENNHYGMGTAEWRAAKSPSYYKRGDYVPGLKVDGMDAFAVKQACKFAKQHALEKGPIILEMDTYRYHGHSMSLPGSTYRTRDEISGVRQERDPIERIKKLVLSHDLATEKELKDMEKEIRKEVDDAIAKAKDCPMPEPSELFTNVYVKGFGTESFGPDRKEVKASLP

[2] = target: T2, AtPDC E1α D295N mutant, H6-tagged (Arabidopsis thaliana, UniProt P52901 18-389, D295N); test: as above; settings: both partners purified
T2 sequence (looked up): T1 sequence (looked up) with L278N

[3] = target: T3, AtPDC E1α S298A mutant, H6-tagged (Arabidopsis thaliana, UniProt P52901 18-389, S298A); test: as above; settings: both partners purified
T3 sequence (looked up): T1 sequence (looked up) with L278D, S281A

[4] = target: T4, AtPDC E1α S292A mutant, H6-tagged (Arabidopsis thaliana, UniProt P52901 18-389, S292A); test: as above; settings: both partners purified
T4 sequence (looked up): T1 sequence (looked up) with S275A, L278D

[5] = target: T5, Arabidopsis thaliana mitochondrial pyruvate dehydrogenase E1α subunit (AtPDC E1α), wild type, H6-tagged (Arabidopsis thaliana, UniProt P52901 18-389); test: pull-down; H6-E1α and FLAG-E1β coexpressed in E. coli; soluble fraction on a HiTrap chelating column charged with NiSO4 (immobilized metal affinity chromatography); E1α detected with monoclonal anti-E1α, E1β with anti-FLAG by immunoblot; settings: partners not purified
T5 sequence (looked up): T1 sequence (looked up) with L278D

Measured: binding result

B1: Arabidopsis thaliana mitochondrial pyruvate dehydrogenase E1β subunit (AtPDC E1β), FLAG-tagged (enzyme, UniProt Q38799 30-363, looked up)
chain: AAGAKEMTVRDALNSAIDEEMSADPKVFVMGEEVGQYQGAYKITKGLLEKYGPERVYDTPITEAGFTGIGVGAAYAGLKPVVEFMTFNFSMQAIDHIINSAAKSNYMSAGQINVPIVFRGPNGAAAGVGAQHSQCYAAWYASVPGLKVLAPYSAEDARGLLKAAIRDPDPVVFLENELLYGESFPISEEALDSSFCLPIGKAKIEREGKDVTIVTFSKMVGFALKAAEKLAEEGISAEVINLRSIRPLDRATINASVRKTSRLVTVEEGFPQHGVCAEICASVVEESFSYLDAPVERIAGADVPMPYAANLERLALPQIEDIVRASKRACYRSK
binds: all assays above
